# Results taken from IntAct's records for PubMed 18805096.
# B1: Cytoplasmic FMR1-interacting protein 1 (Homo sapiens), Q7L576 (parent)
# chain: MAAQVTLEDALSNVDLLEELPLPDQQPCIEPPPSSLLYQPNFNTNFEDRNAFVTGIARYIEQATVHSSMNEMLEEGQEYAVMLYTWRSCSRAIPQVKCNEQPNRVEIYEKTVEVLEPEVTKLMNFMYFQRNAIERFCGEVRRLCHAERRKDFVSEAYLITLGKFINMFAVLDELKNMKCSVKNDHSAYKRAAQFLRKMADPQSIQESQNLSMFLANHNKITQSLQQQLEVISGYEELLADIVNLCVDYYENRMYLTPSEKHMLLKVMGFGLYLMDGSVSNIYKLDAKKRINLSKIDKYFKQLQVVPLFGDMQIELARYIKTSAHYEENKSRWTCTSSGSSPQYNICEQMIQIREDHMRFISELARYSNSEVVTGSGRQEAQKTDAEYRKLFDLALQGLQLLSQWSAHVMEVYSWKLVHPTDKYSNKDCPDSAEEYERATRYNYTSEEKFALVEVIAMIKGLQVLMGRMESVFNHAIRHTVYAALQDFSQVTLREPLRQAIKKKKNVIQSVLQAIRKTVCDWETGHEPFNDPALRGEKDPKSGFDIKVPRRAVGPSSTQLYMVRTMLESLIADKSGSKKTLRSSLEGPTILDIEKFHRESFFYTHLINFSETLQQCCDLSQLWFREFFLELTMGRRIQFPIEMSMPWILTDHILETKEASMMEYVLYSLDLYNDSAHYALTRFNKQFLYDEIEAEVNLCFDQFVYKLADQIFAYYKVMAGSLLLDKRLRSECKNQGATIHLPPSNRYETLLKQRHVQLLGRSIDLNRLITQRVSAAMYKSLELAIGRFESEDLTSIVELDGLLEINRMTHKLLSRYLTLDGFDAMFREANHNVSAPYGRITLHVFWELNYDFLPNYCYNGSTNRFVRTVLPFSQEFQRDKQPNAQPQYLHGSKALNLAYSSIYGSYRNFVGPPHFQVICRLLGYQGIAVVMEELLKVVKSLLQGTILQYVKTLMEVMPKICRLPRHEYGSPGILEFFHHQLKDIVEYAELKTVCFQNLREVGNAILFCLLIEQSLSLEEVCDLLHAAPFQNILPRVHVKEGERLDAKMKRLESKYAPLHLVPLIERLGTPQQIAIAREGDLLTKERLCCGLSMFEVILTRIRSFLDDPIWRGPLPSNGVMHVDECVEFHRLWSAMQFVYCIPVGTHEFTVEQCFGDGLHWAGCMIIVLLGQQRRFAVLDFCYHLLKVQKHDGKDEIIKNVPLKKMVERIRKFQILNDEIITILDKYLKSGDGEGTPVEHVRCFQPPIHQSLASS
# Variants of: B1
# Details: with if4e_human EIF4E
row,Variant,effect of a mutation on the interaction
1,D724A;R726A,decreasing interaction
2,K725E,decreasing interaction
